The text below walks through data of the supplement of paper PMC10724198.

± gives the standard deviation of the averaged measurements.
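Also: PSI is a weighted mean of sequencing reads over stability bins, variants kept only with over 10 reads, mCherry proximal and sfGFP distal, peptide attached via GGGS linker.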

The data set relates to Saccharomyces cerevisiae. Briefly: protein stability index of tFT-peptide fusion (C-terminal peptide) (PSI (0-1 scale)); higher = more stable (slower turnover). The conditions noted are these: genetic background: wild type; temperature: 30 C.
Regarding QMTCADGVDCLL, the protein stability index was 0.589 ± 0.018. The value for QPAVKIGYAMAL was 0.644 ± 0.048; that for QPITEALHDSCT was 0.675 ± 0.098; that for QPNDIEIYTLLT was 0.652 ± 0.05. In turn, QPPLPPPLPGSP had a protein stability index of 0.741 ± 0.085.

QPRLRPPLPSPP came in with a protein stability index of 0.638 ± 0.069. The sequence QPSRQTIPWDTV registered a protein stability index of 0.738 ± 0.037. QQNKKKKTRKSG returned a protein stability index of 0.704 ± 0.046.

Sequence QQRVKTYHELHL returned a protein stability index of 0.712 ± 0.013. Sequence QRGKKKKDKSLV yielded a protein stability index of 0.6424 ± 0.0025. Under QRPFRRRRVLCP stands 0.561 ± 0.054.

QSAGGTRAKFGG registered a protein stability index of 0.658 ± 0.053.

In the case of QSRFFCDKKVWG, the protein stability index was determined as 0.6934 ± 0.0049.

In the case of QSTGDFAVRQSF, the protein stability index stood at 0.753 ± 0.093. The value for QSWEDILKINEE was 0.757 ± 0.011. QTQTAKEWAYHP had a protein stability index of 0.686 ± 0.015. Sequence QTRYAPCQRAPT showed a protein stability index of 0.645 ± 0.08. QTTKRKKKAKKK displayed a protein stability index of 0.675 ± 0.089. QVASVTSLLPYS: the protein stability index is 0.75 ± 0.032. Under QVGTHVTLCEDP stands 0.679 ± 0.0098; under QWGGWGVGRIEG, 0.629 ± 0.069.

For QYASPSISTLPV, the protein stability index was 0.726 ± 0.065. Under RAAPQEDFTFYR stands 0.771 ± 0.14.

Sequence RAASLVSCSLIL had a protein stability index of 0.672 ± 0.024. The value for RACALLIVGAGG was 0.527 ± 0.0085; that for RAFDWFFIFGWC was 0.636 ± 0.04; that for RAFGQGMGLAFS was 0.737 ± 0.0082. The value for RAGKEGRVSSSK was 0.6619 ± 0.0057.

RAKRPAGTSTRG: the protein stability index is 0.604 ± 0.016. Sequence RALRAGVGVRAC registered a protein stability index of 0.662 ± 0.08.

Consider RAPPAARIASGL, for which the protein stability index amounted to 0.677 ± 0.026.

In turn, RARPGKATSAFH showed a protein stability index of 0.73 ± 0.019. The value for RARPPPQLHLSP was 0.745 ± 0.012; that for RAYRSTCRCSER was 0.669 ± 0.081; that for RCFLFSPCWAFS was 0.5889 ± 0.002. Under RCGLVGILCSSI stands 0.5632 ± 0.004. RCGRSVSCLATG: the protein stability index came out at 0.696 ± 0.042. Under RCGVGGSVSFWW stands 0.689 ± 0.05; under RCHGRVNLAEGE, 0.7564 ± 0.00055.

RCLRYFVWRLGW returned a protein stability index of 0.709 ± 0.12.

As to RCLSRLSALGTD, the protein stability index turned out to be 0.624 ± 0.076. In turn, RCNCTTTTLRSK displayed a protein stability index of 0.6046 ± 0.0019.

In turn, RCPDSARRWRVP displayed a protein stability index of 0.7111 ± 0.0045. The value for RCPVFRCITGGL was 0.61 ± 0.031. As to RCTLFGMDQSSA, the protein stability index was determined as 0.642 ± 0.027. Under RCTRQVHPLTFR stands 0.66 ± 0.038; under RCVRLSISILRP, 0.586 ± 0.038. Turning to RCWVTVIRSVRS, the protein stability index amounted to 0.601 ± 0.067.

As to RDELRTSAGKGS, the protein stability index stood at 0.659 ± 0.055.

As for RDERDWDGSSWA, the protein stability index was determined as 0.708 ± 0.03. Regarding RDGRNSKPTYQP, the protein stability index was 0.667 ± 0.025. The value for RDLVEQTLHIEY was 0.667 ± 0.013; that for REEGIEKKEKIR was 0.678 ± 0.03; that for REGCYVRGGILL was 0.68 ± 0.072. Turning to REGRTRGTAAER, the protein stability index came to 0.679 ± 0.027. Under REKARNEKRRKT stands 0.651 ± 0.0075; under REKEKGYLNKKK, 0.743 ± 0.041. The sequence RELLYLPPPSDP gave a protein stability index of 0.821 ± 0.051.

For the sequence REPFCVVGGREG, the protein stability index worked out at 0.681 ± 0.04. RERAQEMGIRNE displayed a protein stability index of 0.675 ± 0.031.

As to RERRFFPPSGFS, the protein stability index worked out at 0.71 ± 0.018. The value for REWLGCYVFGVR was 0.677 ± 0.022; that for RFASVLSLPLSV was 0.642 ± 0.13; that for RFCRPLSHTALA was 0.632 ± 0.028.

As for RFCRSGCWFRWG, the protein stability index came out at 0.607 ± 0.015. Under RFFAVSLGGLEF stands 0.687 ± 0.031; under RFGGVWRCRGFV, 0.696 ± 0.031. The value for RFPLPGLISFSS was 0.742 ± 0.056; that for RFPSLCVPFLFP was 0.678 ± 0.013.

The sequence RFPSRLLVPPPP had a protein stability index of 0.698 ± 0.077.

In turn, RFRYFSPLSTTS registered a protein stability index of 0.671 ± 0.027. The value for RFSKGKPVSAGG was 0.632 ± 0.033; that for RFTCYLCLKGLL was 0.681 ± 0.052; that for RFVRGEFLWGVC was 0.663 ± 0.044. The value for RFVTLLSDFFLL was 0.681 ± 0.063; that for RFWIVVRRQTRT was 0.6447 ± 0.00089. Under RGACGWVDWWGL stands 0.856 ± 0.13; under RGAGYQLFGPPR, 0.698 ± 0.037; under RGARRGAPVCGW, 0.71 ± 0.0075.

Take RGASKYDGDSRR: the protein stability index was determined as 0.668 ± 0.016.
